Data: US20230055711A1 (BIOSION, published 2023)
Substitutions are numbered along the chain they refer to.

B1: huB1H2-V10 (antibody, human IgG1, kappa, V domains shown)
VH: QVQLVQSGAEVKKPGASVKVSCKASGYTLTNYVMHWVRQAPGQGLEWIGFIIPFNDGTKYNEHFKGRVTITSDTSISTAYMQLSSLRSEDTAVYYCARYDFEGYFDVWGQGTLVTVSS
VL: DIQMTQSPSSLSASVGDRVTITCSASQDITNFLNWYQQKPGKAPKLLIYSTSRLHSGVPSRFSGSGSGTDFTLTISSLQPEDIATYYCQQYSNLPWTFGQGTKVEIKR
notes: Humanized IgG1/kappa; cell supernatant in the Octet assay, purified antibody in Biacore, ELISA and FACS
B2: BCMA BM1, full-length antibody containing the BCMA-binding portion of GSK2857916 (antibody, human IgG1, kappa, V domains shown)
VH: QVQLVQSGAEVKKPGSSVKVSCKASGGTFSNYWMHWVRQAPGQGLEWMGATYRGHSDTYYNQKFKGRVTITADKSTSTAYMELSSLRSEDTAVYYCARGAIYDGYDVLDNWGQGTLVTVSS
VL: B1 VL with T30S, F32Y, S50Y, R53N, I83F, S92R, N93K, V104L
notes: Prepared in house from the full heavy and light chains; also called benchmark; positive control
B3: huB1H2-V33 (antibody, human IgG1, kappa, V domains shown)
VH: B1 VH
VL: B1 VL with L73F
notes: as for B1
B4: huB1H2-V23 (antibody, human IgG1, kappa, V domains shown)
VH: B1 VH with S72R, T74K
VL: B1 VL with F71Y
B5: huB1H2-V1 (antibody, human IgG1, kappa, V domains shown)
VH: B1 VH with Q1E, A16S, V37M, V68A, I70L, T74K, I76T, S77N, Q82E, Q110A
VL: B1 VL with A43T, P44V, F71Y, L73F
B6: huB1H2-V18 (antibody, human IgG1, kappa, V domains shown)
VH: B1 VH with T74K
VL: B1 VL with P44V
B7: huB1H2-V14 (antibody, human IgG1, kappa, V domains shown)
VH: B1 VH with S72R
VL: B1 VL with P44V
B8: huB1H2-V3 (antibody, human IgG1, kappa, V domains shown)
VH: B1 VH with V37M, S72R
VL: B1 VL with A43T, P44V, F71Y, L73F
B9: huB1H2-V16 (antibody, human IgG1, kappa, V domains shown)
VH: B1 VH
VL: B1 VL with P44V
B10: huB1H2-V24 (antibody, human IgG1, kappa, V domains shown)
VH: B1 VH with T74K
VL: B1 VL with F71Y
B11: huB1H2-V19 (antibody, human IgG1, kappa, V domains shown)
VH: B1 VH with Q1E, A16S, V37M, V68A, I70L, T74K, I76T, S77N, Q82E, Q110A
VL: B1 VL with F71Y
B12: huB1H2-V2 (antibody, human IgG1, kappa, V domains shown)
VH: B1 VH with S72R
VL: B1 VL with A43T, P44V, F71Y, L73F
B13: huB1H2-V6 (antibody, human IgG1, kappa, V domains shown)
VH: B1 VH with T74K
VL: B1 VL with A43T, P44V, F71Y, L73F
B14: huB1H2-V4 (antibody, human IgG1, kappa, V domains shown)
VH: B1 VH
VL: B1 VL with A43T, P44V, F71Y, L73F
B15: huB1H2-V15 (antibody, human IgG1, kappa, V domains shown)
VH: B1 VH with V37M, S72R
VL: B1 VL with P44V
B16: huB1H2-V17 (antibody, human IgG1, kappa, V domains shown)
VH: B1 VH with S72R, T74K
VL: B1 VL with P44V
B17: huB1H2-V20 (antibody, human IgG1, kappa, V domains shown)
VH: B1 VH with S72R
VL: B1 VL with F71Y
B18: huB1H2-V5 (antibody, human IgG1, kappa, V domains shown)
VH: B1 VH with S72R, T74K
VL: B1 VL with A43T, P44V, F71Y, L73F
B19: huB1H2-V21 (antibody, human IgG1, kappa, V domains shown)
VH: B1 VH with V37M, S72R
VL: B1 VL with F71Y
B20: huB1H2-V13 (antibody, human IgG1, kappa, V domains shown)
VH: B1 VH with Q1E, A16S, V37M, V68A, I70L, T74K, I76T, S77N, Q82E, Q110A
VL: B1 VL with P44V
B21: huB1H2-V22 (antibody, human IgG1, kappa, V domains shown)
VH: B1 VH
VL: B1 VL with F71Y
B22: chimeric B1H2 antibody (antibody, human IgG1, kappa, V domains shown)
VH: EVQLQQSGPELVKPGASVKMSCKASGYTLTNYVMHWMKQKPGQGLEWIGFIIPFNDGTKYNEHFKGKATLTSDKSSNTAYMVLSSLTSEDSAVYYCARYDFEGYFDVWGAGTTVTVSS
VL: DIQMTQTTSSLSASLGDRVTISCSASQDITNFLNWYQQKPDGTVKLLIYSTSRLHSGVPSRFSGSGSGTDYSLTISNLEPEDIATYYCQQYSNLPWTFGGGTNLEIKR
notes: Mouse variable domains fused to human IgG1 / kappa constant regions, made in 293F cells

The molecules below were run against human BCMA on U266 cells (human) (UniProt Q02223) (assay: cell-based or functional assay).

| Molecule | Max inhibition on cell viability (%), antibody-DT3C conjugate on U266 cells [%] |
| --- | --- |
| isotype control antibody (as isotype control-DT3C conjugate) | 17.8 |

The molecules below were run against T1, human BCMA on U266 cells (human, UniProt Q02223 1-184) (assay: cell-based or functional assay).
T1 sequence (looked up): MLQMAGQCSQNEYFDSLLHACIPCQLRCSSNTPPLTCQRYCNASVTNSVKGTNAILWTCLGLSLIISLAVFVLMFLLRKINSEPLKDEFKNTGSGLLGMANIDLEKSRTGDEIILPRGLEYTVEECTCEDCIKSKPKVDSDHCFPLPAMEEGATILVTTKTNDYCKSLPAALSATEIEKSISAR

| Molecule | IC50 (nM), cell killing activity of antibody-DT3C conjugate on U266 cells (internalization assay) [nM] | Max inhibition on cell viability (%), antibody-DT3C conjugate on U266 cells [%] |
| --- | --- | --- |
| B1 | 0.19 | 99.7 |
| B2 | 1.55 | 97 |
| B3 | 0.14 | 99.9 |

These molecules were tested against T1, human BCMA on U266 cells (assay: cell based binding FACS on U266 cells, MFI).

| Molecule | EC50 [nM] |
| --- | --- |
| B2 | 17.7 |

Each molecule was assayed against recombinant human BCMA-his protein (Acro biosystems, Cat #BCA-H522Y) (human) (UniProt Q02223) (assay: BLI Octet RED96, antibody on AHC sensor, BCMA-his in solution).

| Molecule | Kd [nM] | koff [s⁻¹] | kon [M⁻¹ s⁻¹] |
| --- | --- | --- | --- |
| B1 | 2.02 | 0.000733 | 363000 |
| B4 | 20.4 | 0.00214 | 105000 |
| B5 | 1.22 | 0.000498 | 407000 |
| B6 | 2.22 | 0.000921 | 415000 |
| B7 | 5.14 | 0.00137 | 266000 |
| B8 | 0.731 | 0.000402 | 550000 |
| B9 | 3.5 | 0.000887 | 254000 |
| B10 | 6.1 | 0.001 | 164000 |
| B11 | 2.65 | 0.000647 | 244000 |
| B12 | 1.29 | 0.000742 | 573000 |
| B13 | 1.12 | 0.00044 | 392000 |
| B14 | 0.269 | 0.00029 | 1.08e+06 |
| B15 | 6.06 | 0.00137 | 226000 |
| B16 | 9.16 | 0.00238 | 260000 |
| B17 | 6 | 0.00141 | 234000 |
| B18 | 0.915 | 0.000372 | 407000 |
| B19 | 7.12 | 0.00142 | 199000 |
| B20 | 2.21 | 0.000688 | 312000 |
| B21 | 3.77 | 0.000862 | 229000 |
| B3 | 0.349 | 0.00341 | 9.76e+06 |
| B22 | 0.673 | – | – |

Each molecule was assayed against T2, cynomolgus BCMA-his protein (Acro biosystems, Cat #BCA-052H7) (cynomolgus monkey, UniProt A0A2K5UD97 1-53) (assay: indirect ELISA on coated cynomolgus BCMA-his).
T2 construct: Bought; also called cynomolgus monkey BCMA protein; not shown: his tag
T2 sequence (A0A2K5UD97 entry or part of it): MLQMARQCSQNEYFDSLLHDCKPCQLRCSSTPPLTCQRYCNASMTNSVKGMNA

| Molecule | EC50 [nM] |
| --- | --- |
| B1 | ~25400 |
| B2 | 0.186 |
| B3 | ~176 |
| B22 | 190 |

What follows are molecules tested against recombinant human BCMA-his protein (Acro biosystems, Cat #BCA-H522Y) (human) (UniProt Q02223) (assay: SPR Biacore, antibody captured by anti-human IgG on CM5, BCMA-his flowed).

| Molecule | Kd [nM] | koff [s⁻¹] | kon [M⁻¹ s⁻¹] |
| --- | --- | --- | --- |
| B1 | 0.289 | 0.00788 | 2.73e+07 |
| B3 | 0.349 | 0.00341 | 9.76e+06 |
| B22 | 0.0839 | – | – |

The molecules below were run against T3, human BCMA on 293F-BCMA cells (human, UniProt Q02223 1-184) (assay: cell based binding FACS on 293F cells expressing human BCMA, MFI).
T3 construct: Stably expressed on 293F cells prepared in house; also called 293F cells expressing human BCMA; Full length human BCMA
T3 sequence: T1 sequence (looked up)

| Molecule | EC50 [nM] |
| --- | --- |
| B1 | 1.2 |
| B2 | 8.86 |
| B3 | 0.865 |
| B22 | 0.953 |

What follows are molecules tested against recombinant human BCMA-his protein (Acro biosystems, Cat #BCA-H522Y) (human) (UniProt Q02223) (assay: competitive ELISA: coated human BCMA-his, blocked ligand biotin-labeled BAFF-Fc).

| Molecule | IC50 [nM] |
| --- | --- |
| B1 | 10.2 |
| B3 | 7.05 |

What follows are molecules tested against recombinant human BCMA-his protein (Acro biosystems, Cat #BCA-H522Y) (human) (UniProt Q02223) (assay: competitive ELISA: antibody pre-mixed with biotin-labeled human BCMA-his, competitor coated BCMA BM1).

| Molecule | IC50 [nM] |
| --- | --- |
| B1 | 1.51 |
| B3 | 1.45 |

The molecules below were run against recombinant human BCMA-his protein (Acro biosystems, Cat #BCA-H522Y) (human) (UniProt Q02223) (assay: capture ELISA: antibody captured on the plate, biotin-labeled human BCMA-his detected with streptavidin-HRP).

| Molecule | EC50 [nM] |
| --- | --- |
| B1 | 0.47 |
| B3 | 0.439 |
| B22 | 0.226 |
